Values of other authors as cited in publication PMC12805100.
Like-named read-outs stand apart in the source and are kept apart here.

Legend:
[1] = target: Calmodulin (Homo sapiens) (UniProt P0DP23)
[2] = target: Calmodulin (Homo sapiens) (UniProt P0DP23); remark: listed apart in the source

Kd [1]: 100 nM
Kd [2]: 600 nM
Substance: TRPA1 DCTCaMBE (from UniProt O75762)
